Experimental data: patent US20100015637A1 (AbbVie / Abbott, published 2010)

Legend:
[1] = target: human PlGF-1 comprising amino acids 1-137 produced in human embryonic kidney cells (human) (UniProt P49763); assay: Format 3 Quantikine ELISA, capture MAb264, detection Pb264; sFlt-1 0 pmol/L (ratio 0)
[2] = target: human PlGF-1 comprising amino acids 1-137 produced in human embryonic kidney cells (human) (UniProt P49763); assay: Format 3 Quantikine ELISA, capture MAb264, detection Pb264; sFlt-1 920 pmol/L (ratio 30)
[3] = target: human PlGF-1 comprising amino acids 1-137 produced in human embryonic kidney cells (human) (UniProt P49763); assay: Format 3 Quantikine ELISA, capture MAb264, detection Pb264; sFlt-1 613 pmol/L (ratio 20)
[4] = target: recombinant human PlGF-1 (comprising amino acids 1-131) expressed in E. coli (R&D Systems) (human) (UniProt P49763); assay: … sandwich, capture MAb255, detection MAb826; antigen 1500 pg/mL

Row | % Inhibition [1] [%] | PlGF-1 Measured [1] [pg/mL] | % Inhibition [2] [%] | PlGF-1 Measured [2] [pg/mL] | % Inhibition [3] [%] | PlGF-1 Measured [3] [pg/mL] | RLU [4] [RLU] | Molecule
1 | 0 | 865 | 45 | 476 | 40.4 | 515 | – | native sFlt-1, isolated from human placental tissue (from UniProt P17948 27-687) (receptor)
2 | – | – | – | – | – | – | 1.35e+06 | monoclonal antibody 1-255-713 (produced by murine hybridoma cell line 1-255-713, ATCC PTA-8536) (antibody, mouse IgG2a, V domains shown, also called MAb255) VH: QVHLQQSGAELMKPGASVKISCKATGYTFSSYWIEWVKQRPGHGLEWIGEILPGSVSNNFNEKFKDKATLTADPSSNTAYIQVSSLTSEDSAVYYCARSTGFYYGGNYFDHWGQGTTLAVSS VL: DVVMTQTPLSLPVSPGDQASISCRSSQSLVHSNGHTYLHWYLQKPGQSPKLLIYKVSNRFSGVPDRVSGSGSGTDFTLKISRVEAEDLGVYFCSQSTHVPPTFGGGTKLEIKR
